Data reported in patent US20130035289A1 (UNIVERSITE DE LIEGE, published 2013).

B1: Recombinant 14K N-terminal human growth hormone (14K hGH) (other)
chain: MFPTIPLSRLFDNAMLRAHRLHQLAFDTYQEFEEAYIPKEQKYSFLQNPQTSLSFSESIPTPSNREETQQKSNLELLRISLLLIQSWLEPVQFLRSVFANSLVYGASDSNVYDLLKDLEEGIQTLMGRLEDGSP
notes: Produced in E. coli as in WO 98/51323; it is tied to the 14-16 kD fragments in general, not to the tested batch; also called 14K GH; r14K GH
B2: Recombinant 16K N-terminal human prolactin (16K hPRL) (other, UniProt P01236 29-167, looked up)
chain: LPICPGGAARCQVTLRDLFDRAVVLSHYIHNLSSEMFSEFDKRYTHGRGFITKAINSCHTSSLATPEDKEQAQQMNQKDFLSLIVSILRSWNEPLYHLVTEVRGMQEAPEAILSKAVEIEEQTKRLLEGMELIVSQVHP
notes: domain: 16K N-terminal fragment; also called 16K PRL; 16K prolactin

Key:
[1] = target: T1, Recombinant wild type human Plasminogen Activator Inhibitor type 1 (PAI-1) (human, UniProt P05121 24-402); assay: SPR (BIAcore 1000), PAI-1 immobilized on CM5 chip, 25 C
T1 construct: In the yeast two-hybrid confirmation full-length human PAI-1 was cloned in pGADT7 (GAL4 prey fusion); also called recombinant wt PAI-1; rPAI-1

[2] = target: T2, urokinase-type plasminogen activator (uPA) (UniProt P00749 21-431, limits assumed); assay: immunoprecipitation with uPA without PAI-1, Western blot for 14K GH
[3] = target: T1, Recombinant wild type human Plasminogen …; assay: SPR (BIAcore 1000), 16K hPRL immobilized on CM5 chip, 25 C
[4] = target: T3, PAI-1/uPA complex (human, UniProt P05121 24-402; P00749 21-431, limits assumed); assay: SPR (BIAcore 1000), 16K hPRL immobilized on CM5 chip, PAI-1 pre-incubated with uPA, 25 C
T3 construct: For SPR formed by incubating PAI-1 (2 uM) and uPA (1.4 uM) for 10 min at 37 C before loading; also called uPA/PAI-1; uPA-PAI-1 complex

[5] = target: T2, urokinase-type plasminogen activator …; assay: immunoprecipitation with uPA without PAI-1, Western blot for 16K PRL

Binder | Kd [1] [µM] | binding result [2] | Kd [3] [µM] | Kd [4] [µM] | binding result [5]
B1 | 1 | no binding |  |  | 
B2 | 0.6 |  | 0.58 | 0.15 | no binding
